Test results from patent US20180118785A1 (University of Pennsylvania, published 2018).
Bridges are numbered along the chain shown (N, C = ends). [ ]: non-standard residue; d: D form. Bpa = N[C@@H](Cc1ccc(C(=O)c2ccccc2)cc1)C(=O)O; 1Nal = N[C@@H](Cc1cccc2ccccc12)C(=O)O; 2Nal = N[C@@H](Cc1ccc2ccccc2c1)C(=O)O; Igl = N[C@H](C(=O)O)C1Cc2ccccc2C1

target: complement component C3 (human, in normal human plasma) (human) (UniProt P01024); assay: cell-based or functional assay

Molecule | complement-inhibitory activity compared with Compstatin (fold over Compstatin)
Compstatin analog with Ile substituted for Thr at position 13 (peptide) | 21

target: complement component C3 (human, in normal human plasma) (human, UniProt P01024 23-1663); assay: cell-based or functional assay

Molecule | Activity over Compstatin (inhibition of C3b/iC3b deposition on immunocomplexes in human plasma, compared by IC50) [fold over Compstatin]
Ac-ICV[1Nal]QDWGAHRCT-OH (disulfide 2-12 (inferred)) [Ac-4(1-Nal),9A-OH] | 23
Ac-ICV[Igl]QDWGAHRCT-OH (disulfide 2-12 (inferred)) [Ac-4IgI,9A-OH] | 55
H-GICVWQDWGAHRCTAN-OH (disulfide 3-13; SMILES CC[C@H](C)[C@H](NC(=O)CN)C(=O)N[C@H]1CSSC[C@@H](C(=O)N[C@H](C(=O)N[C@@H](C)C(=O)N[C@@H](CC(N)=O)C(=O)O)[C@@H](C)O)NC(=O)[C@H](CCCNC(=N)N)NC(=O)[C@H](Cc2c[nH]cn2)NC(=O)[C@H](C)NC(=O)CNC(=O)[C@H](Cc2c[nH]c3ccccc23)NC(=O)[C@H](CC(=O)O)NC(=O)[C@H](CCC(N)=O)NC(=O)[C@H](Cc2c[nH]c3ccccc23)NC(=O)[C@H](C(C)C)NC1=O) [+G,4W,9A + AN-OH] | 38
ICVXQDWGAHRCT (N-terminal acetyl; dihydrotryptophan (Dht) at position 4; free C-terminal acid (COOH); disulfide bond between the two Cys residues) [Ac-4Dht,9A-OH] | 9
Ac-ICVYQDWGAHRCT-NH2 (disulfide 2-12; SMILES CC[C@H](C)[C@H](NC(C)=O)C(=O)N[C@H]1CSSC[C@@H](C(=O)N[C@H](C(N)=O)[C@@H](C)O)NC(=O)[C@H](CCCNC(=N)N)NC(=O)[C@H](Cc2c[nH]cn2)NC(=O)[C@H](C)NC(=O)CNC(=O)[C@H](Cc2c[nH]c3ccccc23)NC(=O)[C@H](CC(=O)O)NC(=O)[C@H](CCC(N)=O)NC(=O)[C@H](Cc2ccc(O)cc2)NC(=O)[C@H](C(C)C)NC1=O) [Ac-4Y,9A] | 19
Ac-ICV[2Nal]QDWGAHRCT-OH (disulfide 2-12 (inferred)) [Ac-4(2-Nal),9A-OH] | 39
Ac-ICV[Bpa]QDWGAHRCT-OH (disulfide 2-12 (inferred)) [Ac-4(Bpa),9A-OH] | 55
Ac-ICV[Igl]QDWGAHRCT-NH2 (disulfide 2-12 (inferred)) [Ac-4IgI,9A] | 55
Ac-ICV[2Nal]QDWGAHRCT-NH2 (disulfide 2-12 (inferred)) [Ac-4(2-Nal),9A] | 66
